Consider seven molecules from PMC8967717 (Nature, 2022).

Experiment [1] deals with SARS-CoV-2 wild-type spike (S) protein (SARS-CoV-2, WT (MN908947), UniProt P0DTC2).
The target in experiment [2] is SARS-CoV-2 wild-type spike receptor-binding domain (SARS-CoV-2, WT (MN908947), UniProt P0DTC2).

B1: XGv293 (antibody, V domains shown)
VH: QVQLVQSGAEVKKPGASVKVSCKASGYTFTSYFLHWVRQAPGQGLEWLGIIDPSGGASYAQKFQGRVTMTSDTSTSTVYMDLGSLRSEDTAVYYCARAEGTSWLGWFDPWGQGSLVTVSS
VL: QSVLTQPPSASGTPGQRVTISCSGSSSNIGTNYVYWYQQLPGTAPKLLIYRNYQRPSGVPDRFSGSKSGTSASLAISGLRSEDEAEYYCAAWDNGLSGSGWVFGGGTKLTVL
As for B1, the binding result in experiment [1] and in experiment [2] was “binds” in each case.

B2: XGv297 (antibody, V domains shown)
VH: QVQLVQSGAEVKKPGASVKVSCRTSGYTFTAYYIHWVRQVPGQGLEWMGIINPSGGGASYAQTFQGRVSLTRDTSTRTVYMDLSSLISEDTAVYYCARAEGTHWLGWFDPWGQGTLVTVSS
VL: QSVLTQPPSASGTPGQRVTISCSGSSSNIASNSVYWYQQLPGTAPKLLIYRNNQRPSGVPDRFSGSTSGTSASLAISGLRSEDEADYYCAAWDDNLSGSGWVFGGGTKLTVL
As to B2, the binding result in experiment [1] and in experiment [2] was “binds” in each case.

B3: XGv295 (antibody, V domains shown)
VH: QVQLVQSGAEVKKPGASVKVSCKASGYIFTNYYIHWVRQAPGQGLEWMAIFNPSAATASYAQKFQGRVTMTRDTSTTTVYMELRSLRFDDTAVYYCARAEGTSWLGWFDPWGQGTLVTVSS
VL: QSVLTQPPSASGTPGQRVTVSCSGSSSNIGSHDVYWYQQLPGTAPKLLIYKNDQRPSGVPDRFSGSTSGTSASLAISGLRSEDEADYYCAAWDDGLSGSGWVFGGGTKLTVL
For the molecule B3, the binding result in experiment [1] and in experiment [2] was “binds” each time.

B4: XGv294 (antibody, V domains shown)
VH: QVQLVQSGAEVKKPGASVKVSCKASGYTFTRHYIHWVRQAPGQGLEWMGIINPSGGGASYAQKFQGRVTMTRDTSTSTVYMEVSSLRYEDTAVYYCARAEGGSWLGWFDPWGQGTLVTVSS
VL: QSVLTQPPSASGTPGQRVTISCSGGSSNIGNNYVYWYQQLPGTAPKLLIYGNNQRPSGVPDRFSGSKSGTSASLAISGLRSEDEADYHCAAWDDGLSGSGWVFGGGTKLT
For the molecule B4, the binding result in experiment [1] and in experiment [2] was “binds” throughout.

B5: XGv296 (antibody, V domains shown)
VH: QVQLVQSGAEVKKPGASVKISCKASGYTFTDHYVHWVRQAPGQGLEWMAIVNPSDGSTSYAQKFQGRVTMTSDTSTTTIYMELSSLRSGDTAVYYCARAEGSSWLGWFDPWGQGTQVTVSS
VL: QSVLTQPPSASGTPGQRVTISCSGSSSNIGGHYVYWYQQFPGTAPKLLIYRSNQRPSGVPDRFSGSKSGTSASLAISGLRSEDEADYFCAAWDDGLRGSGWVFGGGTTLTV
For the molecule B5, the binding result in experiment [1] and in experiment [2] was “binds” in each case.

B6: XGv291 (antibody, V domains shown)
VH: QVQLVQSGAEVKKPGASVEISCKASGYSFTKYYVHWVRQAPGQGLEWMGIVNPNGGASYAQKFQGRVTMTSDTSTTTFYMEVSGLRSDDTAVYYCARAEGSSWLGWFDPWGQGTLVTVSS
VL: QSVLTQPPSASGTPGQRVTISCSGSTSNIGSKDVYWYQQLPGTAPKLLIYRNNQRPSGAPDRFSASKSGTSASLAISGLRSEDEADYYCAVWDDGLSASGWLFGGGTKLTV
As for B6, the binding result in experiment [1] and in experiment [2] was “binds” in each case.

B7: XGv302 (antibody, V domains shown)
VH: EVQLVESGGGLIQPGGSLRLSCAASGITVSSNYMNWVRQAPGKGLEWVSVIYAGGTTFYADSVKGRFTISRDSSKNTLSLQMNSLRVEDTAVYYCVRNLVVYGMDVWGQGTTVTVSS
VL: DIQLTQSPSSLSASVGDRVTITCRASQGISSDLAWYQQKPGKAPKLLIYGASTLQSGVPSRFSGSGSGAHFTLTINSLQPEDFAIYYCQQLNSEFLTFGGGTKVEIK
For B7, the binding result in experiment [1] and in experiment [2] was “binds” throughout.
